A word on the IC50: it is the concentration needed to halve the response being measured.

Entries after “also recorded” stand apart in the source; their conditions may differ. Read-outs that look alike come from different tables or passages of the source.

We go through five molecules from patent US8709741B2, “Methods of diagnosing a plasmodium infection” (priority 2009, dated 2014).

Series [1] relates to P. falciparum. The experiment in a line: Involvement of enzymatic activity in GX sPLA2-induced inhibition of parasite growth (schizont-enriched culture, 24 h). In kind it is cell-based. The following applies: 37.5 μM LY329722 plus 50 nM GX sPLA2, 24 h. As to the method:
Parasitaemia (%) at t 0 h and t 24 h were determined from Diff Quick-stained smears. Y axis states increase of parasitaemia (A parasitaemia (%)), expressed as parasitaemia at t 24 h-parasitaemia at t 0 h;
Parasitaemia (%) before incubation, and after 24 h of incubation, was determined from Diff Quick-stained smears. Parasite growth was expressed as the percent delta of parasitaemia, using the following formula:
ΔP=[(Px−P0)/(P100−P0)]×100; where ΔP is in percent, P0 is the parasitaemia (%) in the initial culture, P100 is the parasitaemia (%) after 24 h in normal culture conditions, and Px is the parasitaemia (%) after 24 h in experimental conditions.

Series [2] concerns P. falciparum FcB1/Colombian strain. The experiment in a line: Anti-Plasmodium activity assay (dose-response, 3H-hypoxanthine incorporation), culture with human serum. In kind it is cell-based. The following applies: for inhibition of P. falciparum development in vitro: standard P. falciparum cultures with serum. As to the method: (§1) The chloroquine-resistant P. falciparum FcB1/Colombian strain was used. Under the following culture conditions, the in vitro life cycle of the FcB1 strain was 48 hours. Cultures were grown in complete medium consisting of RPMI 1640 (Life Technologies, Inc.) supplemented with 11 mM glucose, 27.5 mM NaHCO3, 100 UI/mL penicillin, 100 μg/mL streptomycin, adjusted to pH 7.4 before addition of heat-inactivated human serum (A+ blood group, 8% final) or Albumax II® (0.5% final), according to the procedure of Trager and Jensen (1976). Parasites were routinely grown at 37° C. in human A+ RBCs (Red blood cells) at a 2% haematocrit and 2-6% parasitemia, in a 3% CO2, 6% O2 and 91% N2 atmosphere. Semi-synchronized cultures were established by Sorbitol (Lambros) treatment. Highly synchronized cultures (4 hour-window synchronization) were obtained by successive Plamion (Pasvol) and Sorbitol treatments. Parasitaemia and stage distribution were determined by optical examination of Diff-Quick stained culture smears. Parasitaemia (expressed in percent) is hundred times the number of parasitized erythrocytes divided by the total number of erythrocytes.
Dried preparations of the purified recombinant human sPLA2s were re-suspended at high concentration (usually 50 μM) in RPMI 0.05% BSA, and then tested individually for their capacity to inhibit the in vitro intra-erythrocytic development of P. falciparum. Dose-response assays based on ^3H-hypoxanthine incorporation by growing parasites were performed as in Guillaume et al. (2004). Radioactivity was measured with a 1450 Microbeta counter (Wallac, Perkin Elmer). Percentage of growth inhibition was calculated from the parasite-associated radioactivity compared with control without sPLA2. Values for the IC50 were determined from dose-response curves.

For series [3], the system named is P. falciparum FcB1 strain. Kind of series: In vitro chemosensitizing activity of PAF on hGX sPLA2 (response modification index). In kind it is cell-based. The note with it: fixed sub-inhibitory PAF 25 μM, 37.5 μM and 50 μM. The protocol: The effects of serial concentrations of PAF (platelet-activating factor) on the susceptibility of the P. falciparum FcB1 strain to GX sPLA2 were assessed in vitro. A P. falciparum culture (1% parasitaemia, 2% haematocrit) was incubated in a 96-well microplate with decreasing concentrations of the recombinant GX sPLA2 in the presence of a fixed, sub-inhibitory concentration of PAF. The response modification index (RMI) as a function of PAF concentration is represented. RMI is the ratio of the 50% inhibitory concentrations (IC50) for GX sPLA2 plus the concentration of PAF, and GX sPLA2 alone. An RMI of 1.0 represents no change in the IC50 for GX sPLA2 when combined with PAF. The RMI values<1.0 represent the degree of potentiation or synergism.
Quantitative analysis of the increased activity of recombinant hGX sPLA2 when combined with PAF was done by comparing concentration-response curves for hGX sPLA2 alone and in the presence of several fixed, sub-inhibitory concentrations of PAF. Effects of each fixed concentration of PAF on the response of the parasites (IC50) to hGX sPLA2 were expressed as the response modification index (RMI) (Oduola et al., 1998). The RMI was calculated by the following formula: RMI=IC50(A,B)/IC50(A), where drug A is hGX sPLA2 and B is PAF. An RMI of 1.0 represents no change in the IC50 for the recombinant hGX sPLA2 combined with PAF. […]

Series [4] in a line: Specific activities of sPLA2s on human plasma (NEFA release, NEFA-C kit). In kind it is biochemical. The note with it: for Specific activity ± SD (μmol NEFA/min × mg enzyme): whole human plasma, 37° C., linear part of kinetic curve, mean of three experiments. The protocol:
Kinetic analysis of human plasma hydrolysis by sPLA2s was performed by mixing on ice 50 μL of crude plasma with recombinant sPLA2s at various final concentrations (respectively 2×, 5× and 10× the IC50 value). At time zero, the mixture was transferred to 37° C. Samples (7 μL) were taken after 5, 15, 30 and 60 minutes of incubation and quickly frozen at −20° C. An aliquot of plasma without enzyme was similarly processed. Concentration of non-esterified fatty acids (NEFAs) in each sample was measured by a discontinuous enzymatic method using the NEFA-C test kit from WAKO, following manufacturer's instructions. The amount of NEFAs in each enzyme-containing plasma sample was subtracted for NEFAs in enzyme-free plasma sample. Specific activity for each of the sPLA2s was determined from the linear part of the curve [NEFA]=f(t). Experiment was repeated three times with plasmas from different donors and different batches of sPLA2s.
Specific activities of sPLA2s on human plasma. Hydrolysis of plasma phospholipids by human and venom sPLA2s was assayed using different incubation times and enzymes concentrations. Hydrolysis was assessed by measuring the amount of NEFAs in samples using the colorimetric assay developed by WAKO (NEFA-C kit). Enzymatic production of NEFAs was corrected for endogenous production of NEFAs measured in the absence of sPLA2. Specific activity for each of the sPLA2s was determined from the linear part of the kinetic curve. Values are the mean of three independent experiments. SD: standard deviation. Anti-P. falciparum activities (IC50) of the respective sPLA2s are given for comparison.

For series [5] the following is noted: Rosengren et al., 2006; cited from earlier work.
The nature of series [6]: Enzymatic hydrolysis of purified lipoproteins (NEFA). In kind it is biochemical, human. The note with it: 15 h at 37° C. As to the method:
CM/VLDL, LDL and HDL were purified from human plasma and used either fresh (F) or after minimal oxidization by air and light (Ox). After phospholipid content determination, plasma, LDL and HDL were adjusted to 1.6 mg PL/mL final concentration in PBS calcium. Because low amount was available, the CM/VLDL fraction was adjusted to 1.0 mg PL/mL. Each sample was incubated for 15 hours at 37° C., alone or in the presence of recombinant human GX sPLA2 (hGX PLA2; 25 nM), recombinant human GIIF sPLA2 (hGIIF PLA2; 125 nM), bee venom sPLA2 (bvPLA2; 0.18 nM) and Naja mossambica mossambica venom sPLA2 (Naja PLA2; 0.05 nM). NEFAs were quantified using the NEFA-C kit (WAKO). Values are the mean±SD of triplicate measurements. They were normalized by subtracting NEFA amount in the absence of enzyme. Two independent experiments with lipoproteins from different plasmas were performed, which gave similar qualitative results. Results from one experiment are shown;
Plasma and purified LDL and HDL were adjusted to 1.67 mg phospholipid (PL)/mL final concentration in PBS. Because purification yielded low amount of CM/VLDL, the CM/VLDL fraction was adjusted to 1.00 mg PL/mL. CaCl2 (1 mM final) was added to the lipoprotein fractions. 200 μL of each fraction were deposited in a 96-well plate and incubated for 15 hours at 37° C., alone or in the presence of recombinant human GX sPLA2 (hGX PLA2, 25.0 nM), recombinant human GIIF sPLA2 (hGIIF PLA2, 125.0 nM), bee venom sPLA2 (bvPLA2, 0.18 nM) and Naja mossambica mossambica venom sPLA2 (Naja PLA2, 0.05 nM). NEFAs were measured in triplicate using the NEFA-C kit (WAKO). Value from each fraction was normalized by subtracting the NEFA amount in the corresponding fraction without enzyme. Two independent experiments with lipoproteins from different plasmas were performed, which gave similar qualitative results. According to the experiment, maximum hydrolysis reached 50% or 65% of total PLs in the fraction. […]

Series [7] concerns P. falciparum. Kind of series: Anti-Plasmodium activity assay in Albumax II (serum substitute). In kind it is cell-based. The following applies: Albumax II instead of serum. As to the method: as §1, with “Highly synchronized cultures (4 hour-window synchronization) were obtained by successive Plamion (Pasvol) and Sorbitol treatments.” left out, “Parasitaemia (expressed in percent) is hundred times the number of parasitized erythrocytes divided by the total number of erythrocytes.” left out
Dried preparations of the purified recombinant human sPLA2s were re-suspended at high concentration (usually 50 μM) in RPMI 0.05% BSA, and then tested individually for their capacity to inhibit the in vitro intra-erythrocytic development of P. falciparum. […] Radioactivity was measured with a 1450 Microbeta counter (Wallac, Perkin Elmer). Percentage of growth inhibition was calculated from the parasite-associated radioactivity compared with control without sPLA2. Values for the IC50 were determined from dose-response curves. […]

[8] abbreviates: Table II, read-out: IC50 (nM), anti-P. falciparum activity given for comparison.
Where [9] appears, read: culture in human red blood cells and serum, mean of independent dose-response assays, read-out: IC50 ± SD (anti-P. falciparum activity).

Turning to `CCc1c(C(=O)C(N)=O)c2c(OCC(=O)O)cc(C)cc2n1Cc1ccccc1` [LY329722, sodium [3-aminooxalyl-1-benzyl-2-ethyl-6-methyl-1H-indol-4-yloxy]-acetic acid], the “effect on GX sPLA2-induced inhibition of parasite growth” value in the series on P. falciparum [1] is “Inhibition of parasite growth was removed”.

In the case of platelet-activating factor [PAF], the IC50 in series [2] (read-out: IC50 on Plasmodium intra-erythrocytic development, serum PAF-AH inhibited by Pefabloc) was found to be 95000 ± 2800 nM; in series [2] (read-out: IC50 on Plasmodium intra-erythrocytic development, standard culture conditions), 82000 ± 1200 nM. In addition, in series [3], the “response modification index (RMI) = IC50(GX sPLA2 + PAF)/IC50(GX sPLA2)” value is less than 1.

B1: V: recombinant human group V secreted phospholipase A2 (protein, UniProt P39877 21-138, looked up)
Phospholipase A2 group V: GLLDLKSMIEKVTGKNALTNYGFYGCYCGWGGRGTPKDGTDWCCWAHDHCYGRLEEKGCNIRTQSYKYRFAWGVVTCEPGPFCHVNLCACDRKLVYCLKRNLRSYNPQYQYFPNILCS
Turning to B1, the “Specific activity ± SD (μmol NEFA/min × mg enzyme)” value in series [4] was found to be 0.33 ± 0.09 μmol NEFA/min × mg enzyme. For the same molecule, the “hydrolysis of serum” value in series [5] is listed as “found active”. Further, the IC50 in series [2] (setting [8]) and in series [2] (setting [9]) was 162 ± 90.9 nM each time. Also, in series [2], the “inhibition of P. falciparum development in vitro” value is on record as “active against P. falciparum”.

B2: IIF: recombinant human group IIF secreted phospholipase A2, full length (protein, UniProt Q9BZM2 21-168, looked up)
Group IIF secretory …: SLLNLKAMVEAVTGRSAILSFVGYGCYCGLGGRGQPKDEVDWCCHAHDCCYQELFDQGCHPYVDHYDHTIENNTEIVCSDLNKTECDKQTCMCDKNMVLCLMNQTYREEYRGFLNVYCQGPTPNCSIYEPPPEEVTCSHQSPAPPAPP
In the case of B2, in series [4], the “Specific activity ± SD (μmol NEFA/min × mg enzyme)” value is reported as 0.92 ± 0.30 μmol NEFA/min × mg enzyme. Also, the “hydrolysis of triglyceride-rich lipoproteins (CM/VLDL)” value in series [6] (125 nM) was “hydrolysed poorly”. Besides, the “preferential order of lipoprotein hydrolysis” value in series [6] (each sPLA2 at approximately 10×IC50) is recorded as “same preferential order than GX sPLA2”. Further, the “increase of IC50 value in Albumax II relative to its value in serum” value in the series on P. falciparum [7] was “approximately 17.5 fold”. For the same molecule, the IC50 was found to be 14.3 ± 13.4 nM in series [2] (setting [8]) and 14.3 ± 10.4 nM in series [2] (setting [9]). Besides, in series [2], the “inhibition of P. falciparum development in vitro” value is reported as “active against P. falciparum”.

B3: IIA: recombinant human group IIA secreted phospholipase A2 (inflammatory type) (protein, UniProt P14555 21-144, looked up)
Phospholipase A2, membrane …: NLVNFHRMIKLTTGKEAALSYGFYGCHCGVGGRGSPKDATDRCCVTHDCCYKRLEKRGCGTKFLSYKFSNSGSRITCAKQDSCRSQLCECDKAAATCFARNKTTYNKKYQYYSNKHCRGSTPRC
In the case of B3, the “hydrolysis of plasma” value in series [4] (high concentration (1 μM), not shown) was “inefficient at hydrolysing plasma”. For the same molecule, the “hydrolysis of serum” value in series [5] was “found inactive”. For the same molecule, the IC50 in series [2] (setting [9]) was greater than 1250 nM. For the same molecule, the figures for the “inhibition of P. falciparum development in vitro” value in series [2] (listed as GIIA) and in series [2] (listed as GIIA sPLA2) were “non-toxic” and “clearly inactive; also recorded: does not exhibit any inhibitory activity”, respectively.
